Reference: patent publication US20250295802A1, “HER3 ANTIBODY-DRUG CONJUGATE AND USE THEREOF” (DUALITY BIOLOGICS (SUZHOU) CO., LTD., priority 2022, published 2025)
Where a chain is given by its changes, count along the chain named. Values joined by “and” are separate entries in the source; they are usually repeats but may differ in a detail not shown here. Identical values can stand only once.

B1: murine 3F8 antibody (antibody, V domains shown)
VH: DVQLQESGPGLVKPSQSLSLTCSVTGYSITSAYYWNWIRQFPGDKLEWMGYISYDGRNNFNPSLKNRISITRDTSKNQFFLKLNSVTSGDTATYYCARDGDYDYFDYWGQGTTLTVSS
VL: DIQMTQTTSSLSASLGDRVTISCRASQDISNYLNWYQQKPDGTFKLLIYYTSILHSGVPSRFSGSGSGTDYSLTISNLEQEDIATYFCQQGDTLPPTFGAGTKLELK
notes: Mouse hybridoma antibody, made by hybridoma or recombinantly; also called m3F8
B2: chimeric 3F8 antibody (antibody, human IgG1, V domains shown)
VH: B1 VH
VL: B1 VL
notes: also called ch3F8; Chimeric antibody
B3: antibody-drug conjugate ADC-1-X1 (hu3F8-2-X1) (antibody, human IgG1, kappa, V domains shown)
VH: QVQLQESGPGLVKPSETLSLTCTVSGYSITSAYYWNWIRQPFGKGLEWMGYISYDGRNNFNPSLKNRVTISRDTSKNQFSLKLSSVTAADTAVYYCARDGDYDYFDYWGQGTTVTVSS
VL: DIQMTQSPSSLSASVGDRVTITCRASQDISNYLNWYQQKPGKAPKLLIYYTSILHSGVPSRFSGSGSGTDYTFTISSLQPEDIATYFCQQGDTLPPTFGGGTKLEIKR
modifications: linker-payload X1 coupled after TCEP reduction; positions not given; linker-payload X1 coupled after TCEP reduction; positions not given; DAR 7.12 for the whole antibody
B4: humanized 3F8 antibody hu3F8-2 (antibody, human IgG1, kappa, V domains shown)
VH: B3 VH
VL: B3 VL
notes: also called Clone 2; clone-2
B5: antibody-drug conjugate ADC-1-X2 (hu3F8-2-X2) (antibody, human IgG1, kappa, V domains shown)
VH: B3 VH
VL: B3 VL
modifications: linker-payload X2 coupled after TCEP reduction; positions not given; linker-payload X2 coupled after TCEP reduction; positions not given; DAR 7.53 for the whole antibody
B6: humanized 3F8 antibody hu3F8-1 (antibody, human IgG1, kappa, V domains shown)
VH: B3 VH with F42P, M49I, R72V
VL: B3 VL
notes: also called Clone 1; clone-1
B7: humanized 3F8 antibody hu3F8-3 (antibody, human IgG1, kappa, V domains shown)
VH: B3 VH with T69S, V93T
VL: B3 VL
notes: also called Clone 3; clone-3

Legend:
[1] = target: HER3 on tumor cell lines (NCI-N87, MDA-MB-468, MDA-MB-453, HCC1569 and other cells with different HER3 surface levels) (UniProt P21860); assay: cell-based or functional assay
[2] = target: T1, human HER2 expressed on SP2/0 cells (human, UniProt P04626 23-1255); assay: flow cytometry (FACS) on SP2/0 cells overexpressing human HER2, PE anti-mouse secondary antibody
T1 construct: whole, on cells; also called SP2/0-HER2 cells
Procedure: (§1) FACS assay: the cultured cells were digested with 0.25% trypsin-EDTA and then centrifuged at 1500 rpm for 5 min. The cell pellets were regenerated into 5×10⁶ cells/mL using a PBS FACS solution containing 5% FBS and 0.2% ProClin300. 50 μL of the cell suspension was incubated with 100 μL of the primary antibody at a concentration of 1 μg/mL on ice for 1 h. The cells were washed twice with the FACS solution. The pellets were regenerated using 100 μL of a FACS solution containing goat anti-mouse IgG-PE (1:1000 dilution) and incubated on ice in the dark for 1 h. The cells were then washed twice and resuspended in 200 μL of the FACS solution.
(§2) Murine 3F8 was co-incubated with SP2/0 wild-type cells or cells overexpressing HER3, HER2 or EGFR. The binding strength was measured in a FACS instrument with a PE-anti-mouse secondary antibody.

[3] = target: T2, human EGFR expressed on SP2/0 cells (human, UniProt P00533 25-1210); assay: flow cytometry (FACS) on SP2/0 cells overexpressing human EGFR, PE anti-mouse secondary antibody
T2 construct: whole, on cells; also called SP2/0-EGFR cells
Procedure: as §1, §2

mouse HER3 = mouse HER3 (mouse, UniProt Q61526 20-641, limits assumed); assay: ELISA on coated antigen, luminescence readout
rat HER3 = rat HER3 (rat, UniProt Q62799 20-641, limits assumed); assay: ELISA on coated antigen, luminescence readout
human HER3-huFc [4] = target: T3, human HER3-huFc (human, UniProt P21860 20-643); assay: ELISA
T3 construct: also called huHER3; not shown: human Fc (huFc)

cynomolgus monkey HER3 = cynomolgus monkey HER3 (cynomolgus monkey, UniProt G7PIG5 20-643); assay: ELISA
human HER2-ex-huFc = target: T4, human HER2-ex-huFc (human, UniProt P04626 23-652); assay: ELISA on coated antigen, luminescence readout
T4 construct: extracellular domain; 'ex' is read as extracellular domain; also called huHER2; not shown: human Fc (huFc)
Procedure: (§3) ELISA assay: human HER2-ex-huFc, human HER3-huFc, and human EGFR-his were diluted to 2 μg/mL and 50 μL/well in a 96-well plate and incubated at 4° C. overnight. The plate was washed with 0.5×PBST, then incubated with 100 μL of a blocking buffer (PBS+3% BSA) at 37° C. for 2 h, and washed with 0.5×PBST. The 3F8 antibody was diluted with the blocking buffer in a 1:3 serial gradient, added at 50 μL/well, incubated at 37° C. for 40-50 min, and then washed with 0.5×PBST. […] Prior to assay, 50 μL of luminol buffer A+B was added to each well in a 1:1 mix.
(§4) The binding affinities of murine 3F8 to human HER3, HER2 and EGFR were determined by ELISA.

human EGFR-his = target: T5, human EGFR-his (human, UniProt P00533 25-645); assay: ELISA on coated antigen, luminescence readout
T5 construct: also called huEGFR; not shown: His tag
Procedure: as §3, §4

human HER3-huFc [5] = target: T3, human HER3-huFc; assay: ELISA, antigen coated
Procedure: as §3
EC50 of murine 3F8 binding to human HER3, HER2, and EGFR was analyzed using GraphPad Prism 6.0.

human HER3-huFc [6] = target: T3, human HER3-huFc; assay: ELISA, 0 freeze-thaw cycles
His-HER3 = target: T6, His-HER3 (UniProt P21860 20-643, limits assumed); assay: SPR, Biacore T200, antibody captured on protein A chip, His-HER3 as analyte
T6 construct: Analyte of the Biacore assay; not shown: His tag
Procedure: Affinity assay by surface plasmon resonance (SPR): antibody kinetics and affinity were determined using Biacore T200. Briefly, the recombinant human HER3 antibody was immobilized on a protein A chip (GE, Cat. 29-1275-5).
The binding affinity of humanized 3F8 (hu3F8) and chimeric 3F8. Binding kinetics of 3 humanized 3F8 clones and chimeric 3F8 were determined by Biacore. Three humanized 3F8 clones (clone 1, clone 2 and clone 3) had different heavy chains and one identical light chain. Clone 1, clone 2, and clone 3 corresponded to hu3F8-1, hu3F8-2, and hu3F8-3, respectively.

human HER3-huFc [7] = target: T3, human HER3-huFc; assay: ELISA, 0 days at 40 °C
Procedure: (§5) Antibody stability test: the purified antibody at 5 mg/mL was stored at 4° C. as regular practice, incubated at 40° C. for 7 days and 14 days for heat stability evaluation, transferred to a glycine solution at pH 3.5 for regeneration, and stored for 2, 4 and 6 h for acid stability evaluation, or subjected to repeated freeze-thaw treatments for 4 or 6 cycles for freeze-thaw stability evaluation. Aggregation was measured by SEC-HPLC, and binding affinity was determined by ELISA.
(§6) The chimeric antibody 3F8 was subjected to parallel assay.

[8] = target: HER3 on tumor cell lines (NCI-N87, MDA-MB-468, MDA-MB-453, HCC1569 and other cells with different HER3 … (UniProt P21860 20-1342, limits assumed)); assay: cell-based or functional assay
human HER3-huFc [9] = target: T3, human HER3-huFc; assay: ELISA after 3 freeze-thaw cycles
human HER3-huFc [10] = target: T3, human HER3-huFc; assay: ELISA after 5 freeze-thaw cycles
human HER3-huFc [11] = target: T3, human HER3-huFc; assay: ELISA after 0 h of incubation at pH 3.5
Procedure: as §5
(§7) EC50 was determined by ELISA.

human HER3-huFc [12] = target: T3, human HER3-huFc; assay: ELISA after 4 h of incubation at pH 3.5
Procedure: as §5, §7

human HER3-huFc [13] = target: T3, human HER3-huFc; assay: ELISA after 6 h of incubation at pH 3.5
Procedure: as §5, §7

human HER3-huFc [14] = target: T3, human HER3-huFc; assay: ELISA after 14 days at 40 °C
Procedure: as §5, §6

human HER3-huFc [15] = target: T3, human HER3-huFc; assay: ELISA after 7 days at 40 °C
Procedure: as §5, §6

human HER3-huFc [16] = target: T3, human HER3-huFc; assay: ELISA after 2 h of incubation at pH 3.5
Procedure: as §5, §7

human HER3-huFc [17] = target: T3, human HER3-huFc; assay: ELISA after 0 h of incubation at pH 3.5; 0 h of incubation at pH 3.5 (untreated time point)
Procedure: as §5, §7

Chain of cynomolgus monkey HER3 (G7PIG5 entry or part of it): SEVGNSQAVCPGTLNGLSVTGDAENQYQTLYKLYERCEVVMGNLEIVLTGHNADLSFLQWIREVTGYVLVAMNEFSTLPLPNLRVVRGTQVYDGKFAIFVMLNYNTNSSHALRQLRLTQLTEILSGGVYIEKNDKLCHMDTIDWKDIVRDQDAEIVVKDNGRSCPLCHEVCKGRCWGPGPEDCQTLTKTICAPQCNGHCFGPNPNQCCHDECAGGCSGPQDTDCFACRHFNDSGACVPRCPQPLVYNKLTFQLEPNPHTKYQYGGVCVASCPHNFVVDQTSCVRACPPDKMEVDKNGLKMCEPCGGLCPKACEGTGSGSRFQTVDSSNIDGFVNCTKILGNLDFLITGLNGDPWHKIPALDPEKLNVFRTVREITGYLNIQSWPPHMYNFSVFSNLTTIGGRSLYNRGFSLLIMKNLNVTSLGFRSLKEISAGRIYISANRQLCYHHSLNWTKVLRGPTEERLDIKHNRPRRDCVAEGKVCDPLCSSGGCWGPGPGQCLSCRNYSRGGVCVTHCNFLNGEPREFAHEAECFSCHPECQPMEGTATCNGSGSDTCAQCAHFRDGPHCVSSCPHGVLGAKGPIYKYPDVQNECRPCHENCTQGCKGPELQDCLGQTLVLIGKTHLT
Chain of mouse HER3 (Q61526 20-641 limits assumed): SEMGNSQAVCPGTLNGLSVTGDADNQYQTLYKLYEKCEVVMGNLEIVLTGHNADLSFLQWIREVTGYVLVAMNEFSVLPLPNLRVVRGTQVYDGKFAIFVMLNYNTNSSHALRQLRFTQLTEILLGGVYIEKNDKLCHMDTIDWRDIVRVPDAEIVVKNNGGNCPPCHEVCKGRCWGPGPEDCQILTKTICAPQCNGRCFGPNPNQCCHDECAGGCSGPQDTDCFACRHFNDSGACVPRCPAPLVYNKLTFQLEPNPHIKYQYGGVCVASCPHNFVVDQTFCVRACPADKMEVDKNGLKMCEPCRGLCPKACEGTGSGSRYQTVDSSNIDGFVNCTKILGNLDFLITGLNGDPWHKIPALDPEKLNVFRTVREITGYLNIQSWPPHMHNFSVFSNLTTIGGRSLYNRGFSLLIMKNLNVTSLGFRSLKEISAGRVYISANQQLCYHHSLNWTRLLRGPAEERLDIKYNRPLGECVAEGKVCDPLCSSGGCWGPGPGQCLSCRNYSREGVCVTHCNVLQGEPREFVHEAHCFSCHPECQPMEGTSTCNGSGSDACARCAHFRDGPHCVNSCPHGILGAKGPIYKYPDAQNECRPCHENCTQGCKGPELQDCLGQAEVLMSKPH
Chain of rat HER3 (Q62799 20-641 limits assumed): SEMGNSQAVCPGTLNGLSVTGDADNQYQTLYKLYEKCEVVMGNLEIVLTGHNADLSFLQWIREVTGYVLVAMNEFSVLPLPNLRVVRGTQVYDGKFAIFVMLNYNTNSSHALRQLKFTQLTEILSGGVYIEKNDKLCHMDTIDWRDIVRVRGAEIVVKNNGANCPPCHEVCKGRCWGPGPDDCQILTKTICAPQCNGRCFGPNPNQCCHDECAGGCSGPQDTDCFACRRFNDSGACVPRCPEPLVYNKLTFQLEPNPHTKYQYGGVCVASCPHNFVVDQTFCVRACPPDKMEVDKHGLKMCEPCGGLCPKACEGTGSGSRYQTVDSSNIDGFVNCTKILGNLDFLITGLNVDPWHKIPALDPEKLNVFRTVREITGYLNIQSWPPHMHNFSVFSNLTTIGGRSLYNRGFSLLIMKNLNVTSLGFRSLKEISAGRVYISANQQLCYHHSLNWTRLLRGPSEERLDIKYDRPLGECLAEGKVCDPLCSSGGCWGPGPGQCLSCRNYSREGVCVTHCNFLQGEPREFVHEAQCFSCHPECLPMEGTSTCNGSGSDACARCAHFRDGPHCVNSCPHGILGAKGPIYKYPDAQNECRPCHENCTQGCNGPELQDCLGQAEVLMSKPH

Molecule	EC50 (human HER3-huFc [6]) [µg/mL]	Kd (His-HER3) [nM]	koff (His-HER3) [s⁻¹]	kon (His-HER3) [M⁻¹ s⁻¹]	EC50 (human HER3-huFc [7]) [µg/mL]	EC50 (human HER3-huFc [9]) [µg/mL]	EC50 (human HER3-huFc [10]) [µg/mL]	EC50 (human HER3-huFc [12]) [µg/mL]	EC50 (human HER3-huFc [13]) [µg/mL]	EC50 (human HER3-huFc [14]) [µg/mL]	EC50 (human HER3-huFc [15]) [µg/mL]	EC50 (human HER3-huFc [16]) [µg/mL]	other results
Reference ADC-1 (U3-1402) (antibody)													HCC1569 IC50 (nM), inhibition of in vitro proliferation (CTG, 6 days) [1]: 40.7 nM; MDA-MB-453 IC50 (nM), inhibition of in vitro proliferation (CTG, 6 days) [1]: 9.62 nM
B1													binding result [2]: no binding; binding result [3]: no binding; binding result (mouse HER3): no binding (tested: about 10^1.2 nM (about 15 nM)); binding result (rat HER3): no binding (tested: about 10^1.2 nM (about 15 nM)); EC50 (human HER3-huFc [4]): 0.164 nM and 0.0245 µg/mL; EC50 (cynomolgus monkey HER3): 0.185 nM and 0.0278 µg/mL; binding result (human HER2-ex-huFc): no binding (tested: about 10^1.2 nM (about 16 nM)); binding result (human EGFR-his): no binding (tested: about 10^1.2 nM (about 16 nM)); EC50 (human HER3-huFc [5]): 0.11 nM and 0.0165 µg/mL
B2	0.0471	0.624	0.000391	628000	0.0474								
B3													HCC1569 IC50 (nM), inhibition of in vitro proliferation (CTG, 6 days) [8]: 0.115 nM; MDA-MB-453 IC50 (nM), inhibition of in vitro proliferation (CTG, 6 days) [8]: 0.042 nM
B4	0.0425	0.492	0.000328	666000	0.0454	0.0467	0.0438	0.0445	0.0412	0.052	0.0481	0.0483	EC50 (human HER3-huFc [11]): 0.045 µg/mL
B5													HCC1569 IC50 (nM), inhibition of in vitro proliferation (CTG, 6 days) [8]: 5.17 nM; MDA-MB-453 IC50 (nM), inhibition of in vitro proliferation (CTG, 6 days) [8]: 0.094 nM
B6	0.0454	1.09	0.000612	560000	0.0392	0.0443	0.0386	0.0409	0.039	0.041	0.0423	0.0381	EC50 (human HER3-huFc [17]): 0.0387 µg/mL
B7	0.0423	0.54	0.000348	644000	0.0424	0.0374	0.0336	0.0394	0.0381	0.0413	0.047	0.0417	EC50 (human HER3-huFc [11]): 0.0387 µg/mL
